Results reported in paper PMC4004597 (Molecular Biology of the Cell, 2014).

T1: R. norvegicus Nup54 of the published Nup58-Nup54 crystal construct (aa 456–494) (R. norvegicus, UniProt P70582 456-494)
T1 chain: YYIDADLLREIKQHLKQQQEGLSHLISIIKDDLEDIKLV

T2: R. norvegicus Nup62 (aa 322–525), entire predicted α-helical part (R. norvegicus, UniProt P17955 322-525)
T2 sequence: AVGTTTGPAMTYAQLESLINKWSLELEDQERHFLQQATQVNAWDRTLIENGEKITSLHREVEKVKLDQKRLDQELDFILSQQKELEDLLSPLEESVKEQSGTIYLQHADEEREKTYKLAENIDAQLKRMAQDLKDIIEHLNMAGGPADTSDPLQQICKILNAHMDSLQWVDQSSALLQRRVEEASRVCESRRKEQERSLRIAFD

B1: R. norvegicus Nup58 of the published Nup58-Nup54 crystal construct (aa 327–412) (domain or fragment)
chain: APADYFRVLVQQFEVQLQQYRQQIEELENHLATQANNSHITPQDLSMAMQKIYQTFVALAAQLQSIHENVKVLKEQYLSYRKMFLG
B2: R. norvegicus Nup58 (aa 239–415), entire predicted α-helical part (domain or fragment)
chain: not shown
B3: long rnNup58-Nup54-Nup62 complex (complex)
chain 1: not shown
chain 2: MTKQHQTRLDIISEDISELQKNQTTTMAKIAQYKRKLMDLSHRTLQVLIKQEIQRKSGYAIQAEEEQLRVQLDTIQGELNAPTQFKGRLNELMSQIRMQNHFGAVKSEEKYYIDADLLREIKQHLKQQQEGLSHLISIIKDDLEDIKLV
chain 3: T2 sequence
B4: short rnNup58-Nup54-Nup62 complex (complex)
chain 1: APADYFRVLVQQFEVQLQQYRQQIEELENHLATQANNSHITPQDLSMAMQKIYQTFVALAAQLQSIHENVKVLKEQYLSYRKMFLGDAG
chain 2: B3 chain 2
chain 3: T2 sequence
B5: R. norvegicus Nup54 (aa 346–494), entire predicted α-helical part (domain or fragment)
chain: B3 chain 2
B6: R. norvegicus Nup58 (aa 327–415), N-terminally truncated (domain or fragment)
chain: B4 chain 1

Tests used:
[1] = molecular target: T1, R. norvegicus Nup54 of the published …; assay: AUC
[2] = molecular target: B5; assay: SEC
[3] = molecular target: the molecule itself; assay: AUC
[4] = molecular target: T2, R. norvegicus Nup62 (aa 322–525), …; assay: SEC

| stoichiometry N [2] | Binder | Kd [3] | other results |
| --- | --- | --- | --- |
| – | B1 | – | stoichiometry N [1]: 2 Nup58:Nup54 |
| 1 | B2 | – | – |
| – | B3 | 52 µM | – |
| – | B4 | 49.3 µM | – |
| – | B5 | – | stoichiometry N [4]: 1 |
| 1 | B6 | – | – |
